In paper PMC11423973 (2024):

Target: SFTSV Gn head domain (Severe fever with thrombocytopenia …)
Assay: BLI

B1: c40C10 (human IgG1 antibody with the heavy and light chain variable regions of mAb 40C10) (antibody, V domains shown)
VH: EVQLQQSGAELVKPGASVKLSCKASGYTFTSHYMYWVKQRPGQGPEWIGEINPTNGGTKFNEKFKSKATLTVDKSSSTAYIQLSSLTSEDSAVYYCSSSGYDYDGRAYFDYWGQGTTLTVSS
VL: DVVMTQTPKFLLVSAGDRVTITCKASQSVSNDVAWYQQKPGQSPKLLIYYASYRYTGVPDRFTGSGYGTDFTFTISAVQAEDLAVYFCQQNYNSPYTFGGGTKLEIK
Kd: 582 pM
